Data: patent US20240043568A1 (KEYMED BIOSCIENCES, published 2024)

How the values were obtained:
[1] = target: T1, recombinant human GPC3 protein (human, UniProt P51654 25-563); experiment: BLI (Octet), antibody on Protein A probe
T1 construct: also called human GPC3 full-length protein; recombinant GPC3 protein
Procedure: Using BLI technology (Octet), the antibody to be tested was captured on the Protein A probe. The binding capacity with human GPC3 protein (10 μg/ml as the initial concentration, 2-fold gradient, a total of 5 concentration points) was detected. The affinity constant KD was obtained according to the association and dissociation rates. The 49G8 humanized antibody binds to the recombinant GPC3 protein with high affinity. The affinity data is seen in Table 6.

[2] = target: T1, recombinant human GPC3 protein; experiment: SPR (Biacore T200), antibody on Protein A chip, GPC3 as analyte
Procedure: (§1) Humanized antibodies with higher affinity were selected and compared for binding to human and cynomolgus monkey GPC3. The humanized antibody h49G8VHv6VKv3 was captured by the Protein A chip (GE healthcare). The recombinant proteins of human and cynomolgus monkey GPC3 diluted in gradient (5 μg/ml as the initial concentration, 2-fold gradient, 5 concentration points in total) were flowed through the chip at a flow rate of 30 μL/min, with a binding time of 150 seconds and dissociation time of 600 seconds. The kinetic constant was fitted using Biacore T200 evaluation software with a Langmuir 1:1 kinetics model. The humanized antibody h49G8VHv6VKv3 binds to human and cynomolgus monkey GPC3 with high affinity. […] The affinity data is seen in Table 7.

[3] = target: T2, recombinant cynomolgus monkey GPC3 full-length protein (cynomolgus monkey, UniProt A0A2K5VK50 24-558); experiment: as above
Procedure: as §1

human GPC3 on cells = target: T3, human GPC3 on cells (human, UniProt P51654 25-563); experiment: flow cytometry on human GPC3-CHO stably-transfected cells, MFI
T3 construct: whole, on cells; One molecule is used for both CHO-hGPC3 transfectants and GPC3+ HepG2 cells; The assay field names the cell; also called CHO-hGPC3 (clone 2B10); CHO-human GPC3

[4] = target: T1, recombinant human GPC3 protein; experiment: ELISA on coated recombinant human GPC3 protein, OD450 [panel Recombinant human GPC3 protein]
[5] = target: T2, recombinant cynomolgus monkey GPC3 …; experiment: ELISA on coated recombinant cynomolgus monkey GPC3 protein, OD450 [panel Recombinant cynomolgus monkey GPC3 protein]
human CD3 on T cells = target: T4, human CD3 on T cells (human, UniProt P07766 23-207); experiment: flow cytometry, Jurkat cells
T4 construct: whole, on cells; The target is the native CD3 complex on cells; The recombinant antigen used elsewhere is the εγ heterodimer; also called CD3 on Jurkat cells; CD3 on human peripheral blood CD4+ and CD8+ T cells
Procedure: Jurkat cells in the logarithmic growth phase were taken, blocked with 3% BSA for 30 min, and added to 96-well U-plate at 5×10⁴ cells per well. The supernatant was discarded after centrifugation. 50 μL of gradient diluted antibody was added (antibody concentration: from 30 ng/mL, 3-fold dilution for 5 gradients) per well, and incubated at 4° C. for 1 hour. […] After washing, 50 μL PBS was added per well to perform resuspending for FACS (iQue, intellicyt) assay (the results are seen in FIG. 13, and Table 10).

[6] = target: T5, human CD3εγ-Fc heterodimer (human); experiment: ELISA, coated human CD3εγ protein
T5 construct: also called human CD3 εγ protein; recombinant CD3 εγ protein
T5 chain 1: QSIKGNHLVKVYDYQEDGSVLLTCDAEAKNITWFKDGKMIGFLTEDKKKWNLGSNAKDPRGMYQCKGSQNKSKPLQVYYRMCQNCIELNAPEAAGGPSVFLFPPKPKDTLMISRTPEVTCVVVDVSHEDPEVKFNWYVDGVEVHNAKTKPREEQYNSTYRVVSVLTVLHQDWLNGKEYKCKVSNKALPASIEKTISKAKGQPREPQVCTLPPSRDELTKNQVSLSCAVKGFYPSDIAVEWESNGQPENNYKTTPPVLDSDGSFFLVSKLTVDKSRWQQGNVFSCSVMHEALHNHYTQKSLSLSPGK
T5 chain 2: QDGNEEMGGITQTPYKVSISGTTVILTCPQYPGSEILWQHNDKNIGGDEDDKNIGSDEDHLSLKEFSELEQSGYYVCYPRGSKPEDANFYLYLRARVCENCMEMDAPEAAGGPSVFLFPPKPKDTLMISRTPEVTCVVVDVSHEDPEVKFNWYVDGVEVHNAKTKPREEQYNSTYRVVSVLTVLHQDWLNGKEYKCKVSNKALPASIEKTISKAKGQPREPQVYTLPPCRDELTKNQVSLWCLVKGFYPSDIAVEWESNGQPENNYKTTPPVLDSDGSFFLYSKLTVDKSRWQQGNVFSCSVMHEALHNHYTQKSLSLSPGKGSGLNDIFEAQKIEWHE
Procedure: Human CD3 εγ protein was coated overnight at 4° C. After blocking with 2% skim milk, different dilutions of CD3 antibodies was added to each well and incubated for 1 hour. The secondary antibody HPR-labeled goat anti-human IgG Fc was added. After being developed by the TMB solution, the reaction was stopped with the concentrated sulfuric acid, and the absorbance was read at 450 nm (the results are shown in FIG. 12 and Table 8).

[7] = target: T5, human CD3εγ-Fc heterodimer; experiment: ELISA on coated human CD3εγ protein, A450 [panel Human CD3 εγ dimer]
Procedure: (§2) Human CD3 εγ protein and monkey CD3 εγ protein were coated separately overnight at 4° C. After blocking with 2% skim milk, different dilutions of CD3 antibody were added to each well and incubated for 1 hour. The secondary antibody HPR-labeled goat anti-human IgG Fc was added. After being developed by the TMB solution. The reaction was stopped with the concentrated sulfuric acid and the absorbance was read at 450 nm.

[8] = target: T6, cynomolgus monkey CD3εγ-Fc heterodimer (cynomolgus monkey); experiment: ELISA on coated monkey CD3εγ protein, A450 [panel Monkey CD3 εγ dimer]
T6 construct: also called monkey CD3 εγ protein
T6 chain 1: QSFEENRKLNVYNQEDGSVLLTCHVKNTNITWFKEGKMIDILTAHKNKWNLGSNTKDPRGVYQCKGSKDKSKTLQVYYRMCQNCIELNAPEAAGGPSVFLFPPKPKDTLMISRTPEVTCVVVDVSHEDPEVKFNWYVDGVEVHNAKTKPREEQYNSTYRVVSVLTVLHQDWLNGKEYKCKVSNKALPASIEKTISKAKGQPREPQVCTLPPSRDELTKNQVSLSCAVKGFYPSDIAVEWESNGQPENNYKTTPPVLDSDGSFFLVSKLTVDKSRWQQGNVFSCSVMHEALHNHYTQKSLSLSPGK
T6 chain 2: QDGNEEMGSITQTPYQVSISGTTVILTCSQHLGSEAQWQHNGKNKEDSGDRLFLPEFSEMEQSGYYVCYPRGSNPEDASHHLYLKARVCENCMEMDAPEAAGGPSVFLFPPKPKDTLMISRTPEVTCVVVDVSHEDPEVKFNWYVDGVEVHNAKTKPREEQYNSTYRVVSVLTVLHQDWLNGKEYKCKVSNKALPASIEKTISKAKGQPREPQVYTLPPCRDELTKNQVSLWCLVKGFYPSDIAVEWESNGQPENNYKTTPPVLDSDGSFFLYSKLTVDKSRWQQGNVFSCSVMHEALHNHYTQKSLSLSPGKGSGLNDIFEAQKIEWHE
Procedure: as §2

B1: h49G8VHv6VKv3 (antibody, V domains shown)
VH: QVQLVQSGAEVKKPGSSVKVSCKASGYTFADYEIHWVRQAPGQGLEWMGAIHPGSGGTAYAQKFQGRVTLTADESSTTAYMELSSLRSEDTAVYYCTRYYSFAYWGQGTLVTVSS
VL: DVVMTQSPLSLPVTPGEPASISCRSSQSIVHSNGNTYLEWYLQKPGQSPQLLIYKVSNRFSGVPDRFSGSGSGTDFTLKISRVEAEDVGVYFCLQVTHVPLTFGQGTKLEIK
notes: Humanized 49G8
- Kd [1]: 1.42 nM
- koff [1]: 0.000134 s⁻¹
- kon [1]: 94800 M⁻¹ s⁻¹
- Kd [2]: 1.39 nM
- koff [2]: 0.000351 s⁻¹
- kon [2]: 253000 M⁻¹ s⁻¹
- Kd [3]: 2.1 nM
- koff [3]: 0.00025 s⁻¹
- kon [3]: 119000 M⁻¹ s⁻¹
- EC50 (read off the curve) (human GPC3 on cells): ~2 nM
- EC50 (read off the curve) [4]: ~0.03 nM
- EC50 (read off the curve) [5]: ~0.03 nM

B2: h49G8VHv6VKv6 (antibody, V domains shown)
VH: QVQLVQSGAEVKKPGSSVKVSCKASGYTFADYEIHWVRQAPGQGLEWMGAIHPGSGGTAYAQKFQGRVTLTADESSTTAYMELSSLRSEDTAVYYCTRYYSFAYWGQGTLVTVSS
VL: DVVMTQSPLSLPVTPGEPASISCRSSQSIVHSNANTYLEWYLQKPGQSPQLLIYKVSNRFSGVPDRFSGSGSGTDFTLKISRVEAEDVGVYFCLQVTHVPLTFGQGTKLEIK
notes: Humanized 49G8
- Kd [1]: 2.38 nM
- koff [1]: 0.00022 s⁻¹
- kon [1]: 92400 M⁻¹ s⁻¹
- EC50 (read off the curve) (human GPC3 on cells): ~2 nM
- EC50 (read off the curve) [4]: ~0.03 nM
- EC50 (read off the curve) [5]: ~0.03 nM

B3: aCD3-hVH9/VL2 (antibody, V domains shown)
VH: EVQLVESGGGLVQPGGSLRLSCAASGFTFNTYAMNWVRKAPGKGLEWVGRIRSKYNNYATYYADSVKDRFTISRDDSKNSLYLQMNSLKTEDTAVYYCVRHGNFGNSYVSWFAYWGQGTLVTVSS
VL: QAVVTQEPSLTVSPGGTVTLTCRSSTGAVTTSNYANWVQEKPGQAPRGLIGGTNKRAPWTPARFSGSLLGGKAALTLSGAQPEDEAEYYCALWYSNLWVFGGGTKLTVL
notes: Human IgG4, lambda
- EC50 (human CD3 on T cells): 25 nM
- EC50 [6]: 0.44 nM
- EC50 (read off the curve) [7]: ~0.04 ng/mL
- EC50 (read off the curve) [8]: ~0.04 ng/mL

B4: aCD3-hVH8/VL1 (antibody, V domains shown)
VH: EVQLVESGGGLVQPGGSLRLSCAASGFTFNTYAMNWVRKAPGKGLEWVGRIRSKYNNYATYYADSVKDRFTISRDDSKNSLYLQMNSLKTEDTAVYYCARHGNFGNSYVSWFAYWGQGTLVTVSS
VL: QAVVTQEPSLTVSPGGTVTLTCRSSTGAVTTSNYANWVQQKPGQAPRGLIGGTNKRAPWTPARFSGSLLGGKAALTLSGAQPEDEAEYYCALWYSNLWVFGGGTKLTVL
notes: Human IgG4, lambda
- EC50 (human CD3 on T cells): 15 nM
- EC50 [6]: 0.65 nM

B5: aCD3-hVH9/VL1 (antibody, V domains shown)
VH: EVQLVESGGGLVQPGGSLRLSCAASGFTFNTYAMNWVRKAPGKGLEWVGRIRSKYNNYATYYADSVKDRFTISRDDSKNSLYLQMNSLKTEDTAVYYCVRHGNFGNSYVSWFAYWGQGTLVTVSS
VL: QAVVTQEPSLTVSPGGTVTLTCRSSTGAVTTSNYANWVQQKPGQAPRGLIGGTNKRAPWTPARFSGSLLGGKAALTLSGAQPEDEAEYYCALWYSNLWVFGGGTKLTVL
notes: Human IgG4, lambda
- EC50 (human CD3 on T cells): 7 nM
- EC50 [6]: 0.49 nM

B6: aCD3-hVH9/VL5 (antibody, V domains shown)
VH: EVQLVESGGGLVQPGGSLRLSCAASGFTFNTYAMNWVRKAPGKGLEWVGRIRSKYNNYATYYADSVKDRFTISRDDSKNSLYLQMNSLKTEDTAVYYCVRHGNFGNSYVSWFAYWGQGTLVTVSS
VL: QAVVTQEPSLTVSPGGTVTLTCRSSTGAVTTSNYANWVQEKPGQAPRGLIGGTNKRAPWTPARFSGSLLGGKAALTITGAQAEDEAEYYCVLWYSNLWVFGGGTKLTVL
notes: Human IgG4, lambda
- EC50 (human CD3 on T cells): 20 nM
- EC50 [6]: 0.42 nM
- EC50 (read off the curve) [7]: ~0.05 ng/mL
- EC50 (read off the curve) [8]: ~0.05 ng/mL

B7: aCD3-hVH1/VL5 (antibody, V domains shown)
VH: EVQLVESGGGLVQPGGSLRLSCAASGFTFNTYAMNWVRQAPGKGLEWVSRIRSKYNNYATYYADSVKDRFTISRDDSKNTLYLQMNSLRAEDTAVYYCVRHGNFGNSYVSWFAYWGQGTLVTVSS
VL: QAVVTQEPSLTVSPGGTVTLTCRSSTGAVTTSNYANWVQEKPGQAPRGLIGGTNKRAPWTPARFSGSLLGGKAALTITGAQAEDEAEYYCVLWYSNLWVFGGGTKLTVL
notes: Humanized CD3 antibody with human IgG4 CH1-CH3 and a lambda light chain constant region
- EC50 (human CD3 on T cells): 10 nM
- EC50 [6]: 0.6 nM
